The record followed here is US20250179143A1, “SYSTEMS AND METHODS FOR CHAPERONE-MEDIATED LIGAND EXCHANGE ON MHC-I AND MHC-RELATED MOLECULES USING CHICKEN TAPBPR” (priority 2022, published 2025).

Assay [1] has as its target 96 HLA-I allotypes on single antigen beads (SABs). In words: SAB tetramer assay, ratio to W6/32 control.
Assay [2] addresses peptide-deficient (empty) HLA-B*37:01/hb2m (human). Nature of the assay: SPR, TAPBPR-biotin on streptavidin chip, UV-irradiated (empty) HLA as analyte. As to conditions: remark: other sources report otherwise. In general terms: SPR reads the build-up and loss of mass on a sensor chip optically.

Where only a bound is given, the exact number is not on record here.

B1: mouse TAPBPR luminal domain (moTAPBPR) (protein, UniProt Q8VD31 21-412, looked up)
chain: TDPPTAPTTAERQRQPTDIILDCFLVTEDRHRGAFASSGDRERALLVLKQVPVLDDGSLEGITDFQGSTETKQDSPVIFEASVDLVQIPQAEALLHADCSGKAVTCEISKYFLQARQEATFEKAHWFISNMQVSRGGPSVSMVMKTLRDAEVGAVRHPTLNLPLSAQGTVKTQVEFQVTSETQTLNHLLGSSVSLHCSFSMAPGLDLTGVEWRLQHKGSGQLVYSWKTGQGQAKRKGATLEPEELLRAGNASLTLPNLTLKDEGNYICQISTSLYQAQQIMPLNILAPPKIQLHLANKDPLPSLVCSIAGYYPLDVGVTWIREELGGIPAQVSGASFSSLRQSTMGTYSISSTVMADPGPTGATYTCQVAHVSLEEPLTTSMRVLPNPEQRG
B1: the MFI ratio in assay [1] was under 5.8.

B2: human TAPBPR luminal domain (hTAPBPR), Q9BX59 22-405 (protein)
chain: KPHPAEGQWRAVDVVLDCFLAKDGAHRGALASSEDRARASLVLKQVPVLDDGSLEDFTDFQGGTLAQDDPPIIFEASVDLVQIPQAEALLHADCSGKEVTCEISRYFLQMTETTVKTAAWFMANMQVSGGGPSISLVMKTPRVTKNEALWHPTLNLPLSPQGTVRTAVEFQVMTQTQSLSFLLGSSASLDCGFSMAPGLDLISVEWRLQHKGRGQLVYSWTAGQGQAVRKGATLEPAQLGMARDASLTLPGLTIQDEGTYICQITTSLYRAQQIIQLNIQASPKVRLSLANEALLPTLICDIAGYYPLDVVVTWTREELGGSPAQVSGASFSSLRQSVAGTYSISSSLTAEPGSAGATYTCQVTHISLEEPLGASTQVVPPERR
The term Kd denotes the constant that tells how readily two partners part at equilibrium. A higher Kd goes with lower affinity. B2 showed a Kd in assay [2] of 7.02 µM.
